Results as given in publication PMC6764946, “Non-enzymatic roles of human RAD51 at stalled replication forks”.

Experiments:
hsRAD51-II3A = hsRAD51-II3A (Homo sapiens, UniProt Q06609 1-339, R130A;R303A;K313A); assay: fluorescence polarization; 1 mM ATP, 1 mM MgCl2, 50 uM CaCl2; apparent Kd; modest binding defect; 25 mM Tris-HCl pH 7.8, 1 mM MgCl2, 1 mM ATP, 1 mM DTT, 50 mM NaCl (printed NaCl2), 50 uM CaCl2, 100 ug/ml BSA, 37 C, 30 min; 2.4 nM oligo, RAD51 10-1000 nM; settings: protein: recombinant; tags: C-terminal His6; label: 5' Alexa Fluor 488 (Methods; legend says fluorescein); single strand
hsRAD51-WT = hsRAD51-WT (Homo sapiens, UniProt Q06609 1-339); assay: fluorescence polarization; 1 mM ATP, 1 mM MgCl2, 50 uM CaCl2; apparent Kd; 25 mM Tris-HCl pH 7.8, 1 mM MgCl2, 1 mM ATP, 1 mM DTT, 50 mM NaCl (printed NaCl2), 50 uM CaCl2, 100 ug/ml BSA, 37 C, 30 min; 2.4 nM oligo, RAD51 10-1000 nM; settings: protein: recombinant; tags: C-terminal His6; label: 5' Alexa Fluor 488 (Methods; legend says fluorescein); single strand
Chain of hsRAD51-WT (Q06609 whole entry): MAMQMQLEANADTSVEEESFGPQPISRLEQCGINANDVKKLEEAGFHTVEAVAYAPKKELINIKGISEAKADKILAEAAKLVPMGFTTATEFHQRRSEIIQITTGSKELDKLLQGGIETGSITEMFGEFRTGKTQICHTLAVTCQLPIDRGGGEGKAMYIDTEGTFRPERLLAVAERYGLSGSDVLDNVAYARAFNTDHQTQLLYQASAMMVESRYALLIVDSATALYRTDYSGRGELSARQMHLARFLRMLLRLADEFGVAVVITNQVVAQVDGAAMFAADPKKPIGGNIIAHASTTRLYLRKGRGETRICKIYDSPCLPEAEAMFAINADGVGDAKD

Chain of hsRAD51-II3A (Q06609 whole entry R130A/R303A/K313A): as the sequence (Q06609 whole entry) above, with R130A, R303A, K313A counted along it

B1: 84-mer ssDNA (ssDNA)
DNA: GGTAGCGGTTGGGTGAGTGGTGGGGAGGGTCGGGAGGTGGCGTAGAAACATGATAGGAATGTGAATGAATGAAGTACAAGTAAA
Kd (hsRAD51-II3A): 132 ± 5 nM
Kd (hsRAD51-WT): 57 ± 1 nM
